Laboratory results as given in PMC5018218.

Columns and labels:
Experiment in all cases: EMSA
[1] = target: DmcElp3 wild type (dimer) (Dehalococcoides mccartyi, UniProt A0A1C7D1B7 1-459)
DmcElp3 9-459 = DmcElp3 9-459 (Dehalococcoides mccartyi, UniProt A0A1C7D1B7 9-459)
[2] = target: DmcElp3 wild type (monomer) (Dehalococcoides mccartyi, UniProt A0A1C7D1B7 1-459)
DmcElp3 K2A K3A = DmcElp3 K2A K3A (Dehalococcoides mccartyi, UniProt A0A1C7D1B7 1-459, K2A;K3A)
DmcElp3 R6A = DmcElp3 R6A (Dehalococcoides mccartyi, UniProt A0A1C7D1B7 1-459, R6A)

B1: D. mccartyi tRNAGlu-1 (UUC) (structured_RNA)
RNA: GCCCCCAUCGUCUAGAGGCCCAGGACAGCGGCCUUUCACGCCGUCAACAGGGGUUCGAAUCCCCUUGGGGGUACCA
With B1 the Kd [1] was ~4 µM, the binding result (DmcElp3 9-459) was “no binding” and the Kd [2] was ~4 µM. B1: no binding (DmcElp3 K2A K3A); no binding (DmcElp3 R6A).
